Values quoted from earlier work, collected in paper PMC11747410.
Like-named read-outs stand apart in the source and are kept apart here.

What was measured:
[1] = target: CD166/ALCAM (Homo sapiens) (UniProt Q13740)
[2] = target: CD166/ALCAM (Homo sapiens) (UniProt Q13740); remark: listed apart in the source

Kd [1] [µM] | Kd [2] [µM] | Substance
38.5 | – | CD166/ALCAM (from UniProt Q13740)
– | 0.7 | CD6 (from UniProt P30203)
